Source: publication PMC13011415

Target: 1-acyl-sn-glycerol-3-phosphate acyltransferase alpha (AGPAT1), endogenous in human cells (human (endogenous in Huh7, HAP1, ERMS)) (UniProt Q99943)
Test: immunostaining of cells or tissue

Sequence of UniProt Q99943 (Q99943 27-283): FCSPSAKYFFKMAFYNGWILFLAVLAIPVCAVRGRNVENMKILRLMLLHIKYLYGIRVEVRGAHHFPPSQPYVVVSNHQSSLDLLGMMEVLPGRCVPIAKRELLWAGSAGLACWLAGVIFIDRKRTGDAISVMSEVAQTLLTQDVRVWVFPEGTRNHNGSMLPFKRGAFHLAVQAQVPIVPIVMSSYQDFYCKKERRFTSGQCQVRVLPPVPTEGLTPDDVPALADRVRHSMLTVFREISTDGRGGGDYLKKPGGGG

“Chikungunya virus (CHIKV) particles, sucrose gradient-purified, strain IND-06-Guj (complex)” gave a reduction of CHIKV binding (MIFD) in AGPAT1 KO against WT HAP1 cells of 85%.
